The source of these data is paper PMC11145253 (Proceedings of the National Academy of Sciences of the …, 2024).

In the experiment the target is T1, CTDNEP1ΔAH as it stands in the crystallized CTDNEP1ΔAH-linker-sNEP1R1-His6 fusion (human, UniProt O95476 40-244).
T1 sequence (looked up): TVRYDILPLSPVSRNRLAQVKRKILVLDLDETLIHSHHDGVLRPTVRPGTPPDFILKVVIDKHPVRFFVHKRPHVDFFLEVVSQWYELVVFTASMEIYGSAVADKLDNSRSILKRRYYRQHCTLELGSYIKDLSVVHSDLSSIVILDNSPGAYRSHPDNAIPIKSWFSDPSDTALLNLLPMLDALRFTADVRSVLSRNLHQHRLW
The experiment is described as follows: crystal structure.

As for GSAKGSES [linker peptide of the CTDNEP1ΔAH-linker-sNEP1R1-His6 fusion], the binding result is “binds”.
